Laboratory results as given in patent US20240383994A1.

Biological target: human CD40 (hCD40), full length, on cells (human) (UniProt P25942)
Assay: not given

Sequence of human CD40 (hCD40), full length, on cells (human) (P25942 21-277 limits assumed): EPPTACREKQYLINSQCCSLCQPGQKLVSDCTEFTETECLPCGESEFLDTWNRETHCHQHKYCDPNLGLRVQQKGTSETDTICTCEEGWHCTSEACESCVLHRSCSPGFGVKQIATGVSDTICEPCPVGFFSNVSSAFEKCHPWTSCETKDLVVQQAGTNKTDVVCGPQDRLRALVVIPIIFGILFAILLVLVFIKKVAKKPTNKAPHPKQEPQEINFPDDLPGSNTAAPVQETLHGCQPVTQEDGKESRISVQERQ

IC50; NF-κB luciferase reporter (RLU), 293T-hCD40-NFκB cells stimulated with human CD40L protein 10 µg/mL [ng/mL]	Binder
2.22	A01 (antibody, V domains shown) VH: QVQLKESGPGLVAPSQSLSITCTVSGFSLPTSGVHWVRQPPGKGLEWLGVIWAGGDTNYNSALMSRLSISKDNSKSQVFLKMNSLQKDDTAIYYCLGHGHFDVWGAGTTVTVSS VL: DVVMTQTPLSLPVSLGDQASISCRSSQSLVHSSGNTYLQWYLQKPGQSPGLLIYKVSNRFSGVPDRFSGSGSGTDFTLKISRVEAEDLGVYFCSQTTHVPWTFGGGTKLEIK
2.79	A02 (antibody, V domains shown) VH: QVQLKESGPGLVAPSQSLSITCTVSGFSLTSSGVHWVRQPPGKGLEWLGVIWAGGDTSYNSALMSRLSISKDNSKSQVFLKMNSLQTDDTAMYYCLGHGHLDVWGAGTTVTVSS VL: DVVMTQTPLSLPVSLGDQASISCRSSQSLVHSSGNTYLHWYLQKPGQSPGLLIYKVSNRFSGVPDRFSGSGSGTDFTLKISRVEAEDLGVYFCSQTTHVPWTFGGGTKLEIK
287	A03 (antibody, V domains shown) VH: DVQLQESGPDRVKPSQSLSLTCTVTGYSITSDYSWHWIRQFPGNKLEWMGYIYSSGHTYYNPSLKSRISFTRDTSKNQFFLQLNSVTTEDTATYYCAIYYYGRSYFDNWGRGTTLTVSS VL: QIVLTQSPAIMSASPGEKVTLTCSASSSVNYMHWYQQKSGTSPKRWIYDTSKLASGVPARFSGSGSGTSYSLTISSMEAEDAATYYCQQWSSNPLTFGAGTKLELK
16.2	B03 (antibody, V domains shown) VH: EVKLVESGGGLVQPGGSLRLSCATSGFTFSDFYMEWVRQPPGKRLEWIAASRDKANDYTTEYSPSVQGRFIVSRDSSQSILYLQMNALRTEDTAIYYCARDVGRSYALDYWGQGTSVTVSS VL: QVVLTQSPAIMSASPGEKVTMTCSASSSVTYMHWYQQKSGTSPKRWIYVTSKLASGVPTRFSGSGSGTSYSLTISSMEAEDAATYYCQQWSRKPPTFGAGTKLELK
8.16	B01 (antibody, V domains shown) VH: QIQLVQSGPELKKPGETVKISCKASGYTFTNYGMNWVKQAPGKGLKWMGWINPYTGEPTYADDFKGRFAFSVETSASTAYLQINNLKNEDTATYFCARKPPFDYWGQGTTLTVSS VL: DIVMTQAAPSVPVTPGESVSISCRSSKSLLHSNGNTYLYWFLQRPGQSPQILIYRVSNLASGVPDRFSGSGSGTAFTLRISRVEAEDVGVYYCMQHVEYPFTFGSGTKLEIK
5.21	B02 (antibody, V domains shown) VH: EVQLQQSGPELVKPGASVKMSCKASGYTFTSYVMYWVKQKPGQGLEWIGYVNPYNDGTNYNEKFKGKATLTSDKSSSTAYMELSSLTSEDSAVYYCARGAMDYWGQGTSVTVSS VL: DIVMTQAAPSVPVTPGESVSISCRSSKSLLHSQGNTYLYWFLQRPGQSPQILIYRVSNLASGVPDRFSGSGSGTAFTLRISRVEAEDVGVYYCMQHVEYPFTFGSGTKLEIK

Biological target: cynoCD40-mFc (monkey (cyno))
Assay: flow cytometry, blocking of cynoCD40-mFc (2 µg/mL) binding to CHO-K1-cynoCD40L cells

Sequence of cynoCD40-mFc (monkey (cyno)) (chain, as listed by the source limits assumed, form in doubt): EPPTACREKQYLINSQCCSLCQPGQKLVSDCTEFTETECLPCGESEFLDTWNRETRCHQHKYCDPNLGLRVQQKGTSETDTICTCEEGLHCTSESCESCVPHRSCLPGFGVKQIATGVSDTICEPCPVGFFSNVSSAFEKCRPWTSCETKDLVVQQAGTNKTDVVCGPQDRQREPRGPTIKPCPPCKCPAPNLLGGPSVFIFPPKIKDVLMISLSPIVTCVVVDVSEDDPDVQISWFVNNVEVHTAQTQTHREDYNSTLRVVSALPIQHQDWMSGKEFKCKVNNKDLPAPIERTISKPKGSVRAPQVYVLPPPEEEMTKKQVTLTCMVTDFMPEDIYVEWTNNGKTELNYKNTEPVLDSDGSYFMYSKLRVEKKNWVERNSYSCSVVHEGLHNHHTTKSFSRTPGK

IC50 [µM]	Binder
0.0252	Chi-A01 (antibody, human IgG4 S228P, kappa, V domains shown) VH: QVQLKESGPGLVAPSQSLSITCTVSGFSLPTSGVHWVRQPPGKGLEWLGVIWAGGDTNYNSALMSRLSISKDNSKSQVFLKMNSLQKDDTAIYYCLGHGHFDVWGAGTTVTVSS VL: DVVMTQTPLSLPVSLGDQASISCRSSQSLVHSSGNTYLQWYLQKPGQSPGLLIYKVSNRFSGVPDRFSGSGSGTDFTLKISRVEAEDLGVYFCSQTTHVPWTFGGGTKLEIKR
0.0255	hzA01-3.1 (antibody, human IgG4 S228P, kappa, V domains shown) VH: QVQLQESGPGLVKPSETLSLTCTVSGFSLPTSGVHWIRQPPGKGLEWIGVIWAGGDTNYNPSLKSRVTISKDNSKNQVFLKLSSVTAADTAVYYCLGHGHFDVWGQGTLVTVSS VL: DVVMTQSPLSLPVTLGQPASISCRSSQSLVHSSGNTYLQWYLQRPGQSPGLLIYKVSNRFSGVPDRFSGSGSGTDFTLKISRVEAEDVGVYYCSQTTHVPWTFGQGTKLEIKR
0.0358	hzA01-3.3 (antibody, human IgG4 S228P, kappa, V domains shown) VH: QVQLKESGPGLVKPSETLSLTCTVSGFSLPTSGVHWIRQPPGKGLEWIGVIWAGGDTNYNSALKSRVTISKDNSKSQVFLKLSSVTAADTAVYYCLGHGHFDVWGQGTLVTVSS VL: DVVMTQSPLSLPVTLGQPASISCRSSQSLVHSSGNTYLQWYLQRPGQSPGLLIYKVSNRFSGVPDRFSGSGSGTDFTLKISRVEAEDVGVYYCSQTTHVPWTFGQGTKLEIKR
0.0229	hzA01-3.4 (antibody, human IgG4 S228P, kappa, V domains shown) VH: QVQLKESGPGLVKPSETLSLTCTVSGFSLPTSGVHWIRQPPGKGLEWIGVIWAGGDTNYNSALMSRVTISKDNSKSQVFLKMSSVTAADTAVYYCLGHGHFDVWGQGTLVTVSS VL: DVVMTQSPLSLPVTLGQPASISCRSSQSLVHSSGNTYLQWYLQRPGQSPGLLIYKVSNRFSGVPDRFSGSGSGTDFTLKISRVEAEDVGVYYCSQTTHVPWTFGQGTKLEIKR
